Experimental findings from patent publication US20030059769, “High affinity nucleic acid ligands to lectins” (published 2003) are described below.

In series [1] the target is T1, P-selectin (PS-Rg) (Homo sapiens, UniProt P16109 P16109:42-321). Description: filter; Table 21 gives 63 pM. As to conditions: tags: human IgG Fc fusion; chain copies: 2 (stated dimer).
Series [2] has as its target T1, P-selectin (PS-Rg). Nature of the series: inhibition; sialyl-LewisX. The note with it: tags: human IgG Fc fusion; chain copies: 2 (stated dimer). The protocol: (§1) The ability of evolved RNA pools or cloned ligands to inhibit the binding of PS-Rg to sialyl-Lewis^x was tested in competitive ELISA assays (C. Foxall et al., 1992, supra). For these assays, the wells of Corning (25801) 96 well microtiter plates were coated with 100 ng of a sialyl-Lewis^x/BSA conjugate, air dried overnight, washed with 300 μl of PBS(−) and then blocked with 1% BSA in HSMC for 60 min at room temperature. RNA ligands were incubated with PS-Rg in HSMC/1% BSA at room temperature for 15 min. After removal of the blocking solution, 50 μl of PS-Rg (10 nM) or a PS-Rg (10 nM)/RNA ligand mix was added to the coated, blocked wells and incubated at room temperature for 60 minutes. The binding solution was removed, wells were washed with 300 μl of PBS(−) and then probed with HRP conjugated anti-human IgG, at room temperature to quantitate PS-Rg binding. After a 30 minute incubation at room temperature in the dark with OPD peroxidase substrate (Sigma P9187), the extent of PS-Rg binding and percent inhibition was determined from the OD₄₅₀.

Series [3] concerns the target T2, L-selectin (LS-Rg) (Homo sapiens, UniProt P14151 P14151:39-332).
T2 sequence: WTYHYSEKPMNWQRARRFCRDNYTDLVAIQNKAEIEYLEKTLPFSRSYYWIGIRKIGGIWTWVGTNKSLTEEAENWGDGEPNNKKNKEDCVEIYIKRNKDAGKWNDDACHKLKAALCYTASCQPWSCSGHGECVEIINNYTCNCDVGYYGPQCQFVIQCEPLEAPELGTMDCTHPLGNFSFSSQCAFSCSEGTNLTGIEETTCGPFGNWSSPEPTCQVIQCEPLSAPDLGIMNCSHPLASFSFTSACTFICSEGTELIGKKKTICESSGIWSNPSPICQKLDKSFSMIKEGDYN
Nature of the series: filter; affinity similar to full length LD227. As to conditions: tags: human IgG2 Fc fusion; chain copies: 2 (stated dimer).

Series [4] deals with T3, soluble L-selectin (Homo sapiens, UniProt P14151 P14151:39-332).
T3 sequence: T2 sequence
Description: filter; 37 C; table prints SEQ 339. The note with it: tags: R&D Systems. The protocol: Unless otherwise indicated, all materials used in the 2′-F RNA SELEX against the L-selectin/IgG2 chimera, LS-Rg, were identical to those of Examples 7, paragraph A and 13, paragraph A. SHMCK-140 buffer, used for all SELEX and binding experiments, was 1 mM CaCl₂, 1 mM MgCC₂, 140 mM NaCl, 5 mM KCl. and 20 mM HEPES, pH 7.4. A soluble form of L-selectin, corresponding to the extracellular domains, was purchased from R&D Systems and used for some nitrocellulose filter binding experiments.
(§2) As described in SELEX Patent Applications, a nitrocellulose filter partitioning method was used to determine the affinity of RNA ligands for LS-Rg and for other proteins. Filter discs (nitrocellulose/cellulose acetate mixed matrix, 0.45 μm pore size, Millipore) were placed on a vacuum manifold and washed with 3 ml of SHMCK 140 buffer under vacuum. Reaction mixtures, containing ³²P labeled RNA pools and unlabeled LS-Rg, were incubated in SHMCK 140 for 10-20 min at 37° C., and then immediately washed with 3 ml SHMCK 140. The filters were air-dried and counted in a Beckman LS6500 liquid scintillation counter without fluor. Alternatively, binding studies employed 96 well micro-titer manifolds essentially as described in Example 13, paragraph E.

In series [5] the target is T4, L-selectin on PBMC / lymphocytes (Homo sapiens, UniProt P14151 P14151:39-372).
T4 sequence: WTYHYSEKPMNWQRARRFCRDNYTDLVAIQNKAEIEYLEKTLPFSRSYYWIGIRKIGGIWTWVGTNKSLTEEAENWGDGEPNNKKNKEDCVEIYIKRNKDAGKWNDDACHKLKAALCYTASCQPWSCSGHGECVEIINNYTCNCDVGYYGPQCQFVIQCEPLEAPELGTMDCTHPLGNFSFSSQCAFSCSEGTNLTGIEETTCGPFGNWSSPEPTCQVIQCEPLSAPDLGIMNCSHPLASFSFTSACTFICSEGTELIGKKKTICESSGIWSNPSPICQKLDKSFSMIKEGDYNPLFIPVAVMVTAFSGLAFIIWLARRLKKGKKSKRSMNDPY
Nature of the series: flow; half-saturation; described as LD201T4 fork dimer. The note with it: label: fluorescein.

The target of series [6] is T1, P-selectin (PS-Rg). Description: filter; streptavidin complex. The note with it: tags: human IgG Fc fusion; chain copies: 2 (stated dimer).
The target of series [7] is T4, L-selectin on PBMC / lymphocytes. Nature of the series: flow; half-saturation, monomer. The note with it: hairpin. The text has this: A variety of monomeric nucleic acid ligands and multivalent Complexes have been examined in flow cytometry.
The target of series [8] is T2, L-selectin (LS-Rg). Nature of the series: filter; room temperature; Table 13 prints 110 nM (probably pM), 380 pM at 37 C. The note with it: tags: human IgG2 Fc fusion; chain copies: 2 (stated dimer). On the procedure: (§3) As described in SELEX Patent Applications and in Example 7, paragraph C, a nitrocellulose filter partitioning method was used to determine the affinity of ssDNA ligands for LS-Rg and for other proteins. For these experiments a Gibco BRL 96 well manifold was substituted for the 12 well Millipore manifold used in Example 7 and radioactivity was determined with a Fujix BAS100 phosphorimager. Bindin, data were analyzed as described in Example 7, paragraph C.

Series [9] addresses T4, L-selectin on PBMC / lymphocytes. Nature of the series: flow; half-saturation; described as LD201T4 dumbell dimer. The note with it: label: fluorescein.
The next series has as its target CD22beta (CD22b-Rg) (UniProt P20273 P20273:20-687). Nature of the series: filter; no binding above background. As to conditions: tags: human IgG1 Fc fusion; chain copies: 2 (inferred).
The target of series [10] is T2, L-selectin (LS-Rg). Nature of the series: filter; affinity similar to full length LD201. The note with it: tags: human IgG2 Fc fusion; chain copies: 2 (stated dimer).
The target of series [11] is T3, soluble L-selectin. Nature of the series: filter; binding undetectable; Table 16 sequence differs from SEQ 358. The note with it: tags: R&D Systems.
Series [12] addresses T2, L-selectin (LS-Rg). Description: filter; affinity reduction versus full length LF1807; called LF1807T5 in Table 16. The note with it: tags: human IgG2 Fc fusion; chain copies: 2 (stated dimer). On the procedure: as §2
(§4) Predictions of minimal high affinity sequences for family 1 ligands can be made and serve as a partial test of the postulated secondary structure.

In series [13] the target is T2, L-selectin (LS-Rg). Nature of the series: filter; affinity reduction versus full length LF1514. As to conditions: tags: human IgG2 Fc fusion; chain copies: 2 (stated dimer). On the procedure:
as §2, §4

In series [14] the target is T1, P-selectin (PS-Rg). Description: inhibition; sialyl-LewisX; text says about 2 nM. As to conditions: tags: human IgG Fc fusion; chain copies: 2 (stated dimer). On the procedure:
as §1

The target in series [15] is T1, P-selectin (PS-Rg). Nature of the series: filter. As to conditions: tags: human IgG Fc fusion; chain copies: 2 (stated dimer).
The target in series [16] is T2, L-selectin (LS-Rg). Nature of the series: filter; room temperature; repeat of Table 13 (57 pM). The note with it: tags: human IgG2 Fc fusion; chain copies: 2 (stated dimer). The protocol:
as §3

T1 sequence (P16109 42-321, one chain of several): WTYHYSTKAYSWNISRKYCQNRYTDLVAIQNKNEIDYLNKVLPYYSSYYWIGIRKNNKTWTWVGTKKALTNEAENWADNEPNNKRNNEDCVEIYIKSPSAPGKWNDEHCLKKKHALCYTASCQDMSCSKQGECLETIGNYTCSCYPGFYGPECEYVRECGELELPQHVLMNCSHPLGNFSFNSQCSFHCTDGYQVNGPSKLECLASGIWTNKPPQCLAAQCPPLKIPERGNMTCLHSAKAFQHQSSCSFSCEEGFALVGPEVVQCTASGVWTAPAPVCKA

Usually Kd stands for the free concentration of one partner at which half of the binding sites on the other are occupied at equilibrium, for simple one-to-one binding. A lower Kd goes with a tighter complex. What is called IC50 is the concentration that inhibits the measured activity by half. Read a high IC50 as weaker potency in that assay. CUCAACGAACCACGGGGAAAUCCACCAGUAACACGCGAG (ssRNA, 2'-F C and U) [PF398s1] showed an equilibrium dissociation constant (Kd) in the series with P-selectin (PS-Rg) [1] of 0.178 nM. This molecule also displayed an IC50 with P-selectin (PS-Rg) [2] of 2 nM.

For the molecule CGCGCGTTACAAGGTGCTAAACGTAACGTACTTGCTTACTCGCG (ssDNA) [LD227X1], the binding signal with L-selectin (LS-Rg) [3] is roughly 1 fold.

B1: LF1520 (ssRNA)
RNA: GGGAGGACGAUGCGGAUCGAUUUCAUGCGUUUUUCGAGUGACGAUCAGACGACUCGCCCGA
modifications: 2'-F C and U
In the series with soluble L-selectin [4], B1 had a Kd of 0.5 nM.

B2: NX303 fork dimer (ssDNA)
DNA: TCCAGTACAAGGTGCTAAACGTAATGGTT
modifications: two copies on forked 20 kDa PEG, 5' amino C6 dT, 3'-3' terminal [1 = 5' amino modifier C6 dT; 29 = 3'-3' terminal dT; two identical copies on forked 20 kDa PEG (PEG left out)]
Broadly, the EC50 is the concentration that produces a half-maximal response. The low end stands for a more potent agent, the high end for a less potent agent. In the case of B2, the EC50 in series [5] is 0.6 nM.

In turn, CUCAACGAGCCAGGAACAUCGACGUCAGCAAACGCGAG (ssRNA, 2'-F C and U, biotin bound to streptavidin) [PF377s1B:SA] gave a Kd with P-selectin (PS-Rg) [6] of 0.03 nM. This lies in the picomolar range.

Consider CCAGTACAAGGTGCTAAACGTAATGG (ssDNA) [LD201T4], for which a half-maximal effect in [7] (EC50) was put at 20 nM.

B3: LD233 (ssDNA)
DNA: CTACCTACGATCTGACTAGCCACGACAGAGAACAAGGCGTTAGACGTTATCCGACCACGGCTTACTCTCATGTAGTTCC
Turning to B3, the affinity in the series with L-selectin (LS-Rg) [8], expressed as Kd, was 0.12 nM.

B4: NX303 dumbell dimer (ssDNA)
DNA: TCCAGTACAAGGTGCTAAACGTAATGGTT
modifications: two copies on PEG 3400, 5' amino C6 dT, 3'-3' terminal [1 = 5' amino modifier C6 dT; 29 = 3'-3' terminal dT; two identical copies on PEG 3400 (PEG left out)]
Molecule B4 had an EC50 in series [9] of 0.1 nM.

B5: PA350 (ssRNA)
RNA: GGGAGACAAGAAUAAACGCUCAAGCCCCAAACGCAAGUGAGCAUCCGCAACAGGGAAGAAGACAGACGAUUGAUUCGACAGGAGGCUCACAACAGGC
modifications: 2'-NH2 C and U
B5 returned an IC50 in the series with P-selectin (PS-Rg) [2] of 2 nM. Besides, the binding result in the series with CD22beta (CD22b-Rg) was “no binding”.

Regarding CGCGGTAACCAGTACAAGGTGCTAAACGTAATGGCGCG (ssDNA) [LD201T10], the binding signal with L-selectin (LS-Rg) [10] was roughly 1 fold.

B6: LF1535 (ssRNA)
RNA: GGGAGGACGAUGCGGCAAUGUGUUUCUCAAAUUGCUUUCUCCCUUCAGACGACUCGCCCGA
modifications: 2'-F C and U
Consider B6, for which, in the series with soluble L-selectin [11], the binding result is listed as “no binding”.

Molecule GGAGUCUUAGGCAGCGCGUUUUCGAGCUACUCC (ssRNA, 2'-F C and U) [LF1807T4] yielded a binding signal with L-selectin (LS-Rg) [12] of roughly 3 fold.

In turn, CUCAAAUUGCGUGUUUUCAAGCA (ssRNA, 2'-F C and U) [LF1514T2] showed a binding signal with L-selectin (LS-Rg) [13] of no less than 100 fold.

B7: PF377 (ssRNA)
RNA: GGGAGACAAGAAUAAACGCUCAACGAGCCAGGAACAUCGACGUCAGCAAACGCGAGCGCAACCAGUAACACCUUCGACAGGAGGCUCACAACAGGC
modifications: 2'-F C and U
In the series with P-selectin (PS-Rg) [14], B7 showed an IC50 of 3 nM.

The molecule CUCAACGAGUUCACAUGGGAGCAAUCUCCGAAUAAACAACACGCGAG (ssRNA, 2'-F C and U) [PF424s1] registered a Kd in the series with P-selectin (PS-Rg) [15] of 0.178 nM.

B8: LD230 (ssDNA)
DNA: CTACCTACGATCTGACTAGCTGCACACCTGAGGGTTACAAGGCGCTAGACGTAACCTCTCGCTTACTCTCATGTAGTTCC
For B8, in the series with L-selectin (LS-Rg) [16], the Kd amounted to 0.044 nM.
